Measured values taken from patent publication US7326418B2, “Identification of novel factors that block programmed cell death or apoptosis by targeting JNK” (University of Chicago, priority 2001, dated 2008).
Ends that are not written are not given here.

What was measured:
GST-MKK7 = target: T1, GST-MKK7 (Homo sapiens, UniProt O14733, Q133P/Q94H); assay: GST pull-down, GST-MKK7-coated beads with in vitro-translated Gadd45β products; assay type: binding
T1 construct: made in house; host or cells: E. coli BL21
T1 sequence (O14733 1-401 Q94H/Q133P limits assumed): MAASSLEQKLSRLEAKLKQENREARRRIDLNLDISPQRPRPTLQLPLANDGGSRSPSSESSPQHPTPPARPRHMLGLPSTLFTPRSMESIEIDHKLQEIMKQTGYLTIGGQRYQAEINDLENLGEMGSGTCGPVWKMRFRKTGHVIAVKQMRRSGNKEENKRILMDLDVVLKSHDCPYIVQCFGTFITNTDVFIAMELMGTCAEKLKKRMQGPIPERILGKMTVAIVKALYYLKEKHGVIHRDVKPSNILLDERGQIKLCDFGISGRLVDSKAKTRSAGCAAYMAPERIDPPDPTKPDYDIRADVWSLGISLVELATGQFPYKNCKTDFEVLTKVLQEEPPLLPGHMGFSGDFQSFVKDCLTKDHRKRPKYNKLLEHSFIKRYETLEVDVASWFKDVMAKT
Protocol: GST pull-down assays were performed using GST- or GST-MKK7-coated beads and in vitro-translated, Gadd45β products corresponding to the polypeptidic fragments indicated in FIG. 36A.
To generate Gadd45β polypeptides, in vitro reactions were primed with pBS-GFP-Gadd450 plasmids, encoding green fluorescent protein (GFP) directly fused to FL or truncated Gadd45β. To obtain these plasmids, pBS-Gadd45β(FL), pBS-Gadd45β (41-160), pBS-Gadd45 (60-160), pBS-Gadd45β (69-160), pBS-Gadd45β (87-160), and pBS-Gadd45β (113-160)—encoding the corresponding amino acid residues of murine Gadd45β were generated—by cloning appropriate gadd45β cDNA fragments into the XhoI and HindIII sites of pBS SK−. These plasmids, encoding either FL or truncated Gadd45β, were then opened with KpnI and XhoI, and the excised DNA fragments were replaced with the KpnI-BsrGI fragment of pEGFP-N1 (Clontech; containing the GFP-coding sequence) directly joined to the following oligonucleotide linker: 5′-[…]-3′ (SEQ ID NO: 48). These constructs were designated as pBS-GFP-Gadd45β. Gadd45β C-terminal deletions were obtained as described for the JNKK2 deletions by using pBS-GFP-Gadd45β(FL) that had been digested with the NgoMI, SphI, or EcoRV restriction enzymes to direct protein synthesis in vitro. These plasmids encoded the 1-134, 1-95, and 1-68 amino acid fragments of Gadd45β, respectively. […]

GST-Gadd45β = target: T2, GST-Gadd45β (Mus musculus, UniProt P22339); assay: GST pull-down of in vitro translated MKK7 peptides with GST-Gadd45β; assay type: binding, murine; details: fused to eGFP
T2 construct: Murine and human, full-length Gadd45J3 proteins were purified from E. coli as GST-Gadd45β and His6-tagged Gadd45β; made in house; host or cells: E. coli BL21 (pGEX-3X)
T2 sequence (P22339 1-160): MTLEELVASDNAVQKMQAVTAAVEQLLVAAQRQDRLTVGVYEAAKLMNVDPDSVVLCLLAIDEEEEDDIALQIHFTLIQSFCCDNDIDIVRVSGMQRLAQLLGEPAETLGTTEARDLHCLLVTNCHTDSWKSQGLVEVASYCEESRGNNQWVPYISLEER

wild-type MEFs = assay: Apoptosis assay with TAT peptides, wild-type MEFs; assay type: cell-based, mouse; details: HIV-TAT-fused peptides; MEFs at passage 4
Text: (§1) A-B, Apoptosis assays showing that peptide 1 effectively promotes killing by TNFα in IκBαM-Gadd45β and Neo 3DO clones, respectively. C-D, Apoptosis assays showing that both peptide 1 and peptide 2 can facilitate TNFα-induced cytotoxicity in wild-type MEFs, and that only peptide 2 promotes this killing in Gadd45β null MEFs, respectively. (C-D), MEFs were from twin embryos and were used at passage (p)4. A-D, Values (expressed as arbitrary units) were obtained by subtracting background values with untreated cells from values with TNFα-treated cells, and represent the mean (+/−standard deviation) of three experiments.
(§2) Treatments were as follows: murine TNFα (Peprotech), 1,000 U/ml, 10 U/ml, or 1,000 U/ml plus 0.3 μg/ml cycloheximide (CHX; FIG. 33); human TNFα (Peprotech), 2,000 U/ml; PMA plus ionomycin (Sigma), 100 ng/ml and 1 μM, respectively. Treatments with H2O2 and sorbitol were as described previously. In FIG. 33, pre-treatment with HIV-TAT peptides (5 μM) or DMSO was for 30 minutes and incubation with TNFα was for an additional 4 and 3.5 hours, respectively. In FIG. 33, peptides were used at 10 μM and incubation with TNFα was for 4 hours. Apoptosis was measured by using the Cell Death Detection ELISA PLUS kit (Roche). […]

gadd45β−/− MEFs = assay: Apoptosis assay with TAT peptides, Gadd45β null MEFs; assay type: cell-based, mouse; details: HIV-TAT-fused peptides; MEFs at passage 4
Text: as §1, §2

[1] = target: T3, MKK7 inhibition by Gadd45β (Mus musculus, UniProt P22339); assay: MKK7 kinase assay: peptide interference with MKK7 inhibition by Gadd45β; assay type: biochemical; details: GST-Gadd45β pre-incubated with peptides 20 min; FLAG-MKK7 from TNFα-treated 293 cells
T3 construct: Murine and human, full-length Gadd45J3 proteins were purified from E. coli as GST-Gadd45β and His6-tagged Gadd45β; made in house; host or cells: GST-Gadd45β from E. coli; FLAG-MKK7 immunoprecipitated from transfected, TNFα-treated 293 cells
T3 sequence (P22339 1-160): T2 sequence (P22339 1-160)
Protocol: (§3) FLAG-MKK7 was immunoprecipitated from TNFα-treated (10 minutes) 293 cells. b, c, are apoptosis assays showing that peptide 1 promotes killing by TNFα in IκBαM-Gadd45β and Neo clones, respectively. Values (expressed as arbitrary units) were obtained by subtracting background values with untreated cells from values with TNFα-treated cells, and represent the mean (+/−standard deviation) of three experiments.
To define interaction regions and determine whether they are sufficient for binding, Gadd45β association with overlapping peptides spanning these regions (FIG. 29e) was determined. […] This is reminiscent of the mechanism by which p27^KIP1 inhibits cyclin-dependent kinase (CDK)2. A question explored was whether MKK7, Gadd45β-binding peptides interfered with the Gadd45β ability to suppress kinase activity.
GST precipitations with in vitro-translated proteins or purified proteins (FIG. 26-30), and kinase assays were performed. […] MKK7 phosphorylation was monitored by performing immunoprecipitations with anti-P-MKK7 antibodies (developed at Cell Signaling) followed by Western blots with anti-total MKK7 antibodies. […]

[2] = tested on: Neo 3DO cells (NF-κB-proficient); assay: Apoptosis assay (Cell Death Detection ELISA) with TAT peptides, Neo 3DO clones; assay type: cell-based
Protocol: as §3
A-B, Apoptosis assays showing that peptide 1 effectively promotes killing by TNFα in IκBαM-Gadd45β and Neo 3DO clones, respectively. […] A-D, Values (expressed as arbitrary units) were obtained by subtracting background values with untreated cells from values with TNFα-treated cells, and represent the mean (+/−standard deviation) of three experiments.
Treatments were as follows: murine TNFα (Peprotech), 1,000 U/ml (FIG. 27) or 10 U/ml (FIG. 30); human TNFα (Peprotech), 2,000 U/ml; PMA plus ionomycin (Sigma), 100 ng/ml and 1 μM, respectively. […] Apoptosis was measured by using the Cell Death Detection ELISA^PLUS kit (Roche).
Treatments were as follows: murine TNFα (Peprotech), 1,000 U/ml, 10 U/ml, or 1,000 U/ml plus 0.3 μg/ml cycloheximide (CHX; FIG. 33); human TNFα (Peprotech), 2,000 U/ml; PMA plus ionomycin (Sigma), 100 ng/ml and 1 μM, respectively. […] Apoptosis was measured by using the Cell Death Detection ELISA PLUS kit (Roche). […]

IκBαM-Gadd45β 3DO cells = assay: Apoptosis assay (Cell Death Detection ELISA) with TAT peptides, IκBαM-Gadd45β 3DO clones; details: for TNFα-induced killing of IκBαM-Gadd45β cells: HIV-TAT-fused peptides 5 μM, 30 min pre-treatment, then TNFα
Protocol: Treatments were as follows: murine TNFα (Peprotech), 1,000 U/ml (FIG. 27) or 10 U/ml (FIG. 30); human TNFα (Peprotech), 2,000 U/ml; PMA plus ionomycin (Sigma), 100 ng/ml and 1 μM, respectively. In FIG. 30, pre-treatment with HIV-TAT peptides (5 μM) or DMSO was for 30 minutes and incubation with TNFα was for an additional 7 and 3.5 hours, respectively. Apoptosis was measured by using the Cell Death Detection ELISA^PLUS kit (Roche).
Treatments were as follows: murine TNFα (Peprotech), 1,000 U/ml, 10 U/ml, or 1,000 U/ml plus 0.3 μg/ml cycloheximide (CHX; FIG. 33); human TNFα (Peprotech), 2,000 U/ml; PMA plus ionomycin (Sigma), 100 ng/ml and 1 μM, respectively. […] In FIG. 33, pre-treatment with HIV-TAT peptides (5 μM) or DMSO was for 30 minutes and incubation with TNFα was for an additional 4 and 3.5 hours, respectively. In FIG. 33, peptides were used at 10 μM and incubation with TNFα was for 4 hours. Apoptosis was measured by using the Cell Death Detection ELISA PLUS kit (Roche).

| Substance | binding to MKK7 in vitro (GST-MKK7) | binding to GST-Gadd45β (GST-Gadd45β) | cytokine (TNFα)-induced toxicity in wild-type fibroblasts (wild-type MEFs) | TNFα-induced killing in gadd45β−/− MEFs (gadd45β−/− MEFs) | prevention of MKK7 inhibition by Gadd45β [1] | toxicity in untreated Neo cells ([2]; HIV-TAT-fused peptide, no TNFα) | TNFα-induced killing of NF-κB-proficient (Neo) cells ([2]; HIV-TAT-fused peptides 5 μM, 30 min pre-treatment, then TNFα) | basal toxicity in IκBαM-Gadd45β cells (IκBαM-Gadd45β 3DO cells; HIV-TAT-fused peptide, no TNFα) | TNFα-induced killing of IκBαM-Gadd45β cells (IκBαM-Gadd45β 3DO cells) |
| --- | --- | --- | --- | --- | --- | --- | --- | --- | --- |
| IALQIHFTLIQSFCCDND [69-86 amino acid region of Gadd45β, positions 69-86 of Gadd45β] | sufficient to bind to MKK7 | – | – | – | – | – | – | – | – |
| NH2-TGHVIAVKQMRRSGNKEENKRILMD-COOH (H-TGHVIAVKQMRRSGNKEENKRILMD-OH; listed as Homo sapiens) [peptide 2, aa 142-166 of MKK7/JNKK2] | – | does not bind | enhanced | retained (and, in fact, enhanced) | – | – | – | – | – |
| peptide 1: MKK7 peptide 132-156, Gadd45β-interacting, spans ATP-binding site K149; fused to cell-permeable HIV-TAT peptide for cell assays (GPVWKMRFRKTGHVIAVKQMRRSGN; also: fused to HIV-TAT peptide for cell assays; listed as Homo sapiens) | – | sufficient to recapitulate this binding | enhanced | completely insensitive | prevented MKK7 inhibition by Gadd45β | minimal toxicity | promoted TNFα-induced killing | marginal basal toxicity | markedly increased susceptibility |
| peptide 7: MKK7 peptide 220-234, Gadd45β-interacting; fused to HIV-TAT peptide for cell assays (GKMTVAIVKALYYLK; also: fused to HIV-TAT peptide for cell assays; listed as Homo sapiens) | – | sufficient to recapitulate this binding | – | – | did not | – | – | – | no effect |
